Substrate: [O-][Cl+]O
Experiment: oxygen evolution in digitonin-permeabilised HeLa cells, optical oxygen meter, initial rates
Assay type: biochemical, Nitrospira defluvii
Details: 20 mM HEPES pH 7.2, 125 mM KCl, 2 mM K2HPO4, 1 mM MgCl2, glutamate, malate, 0.01% digitonin, air-saturated, chlorite 10 μM to 1 mM

B1: FLAG-NdCld (Nitrospira defluvii) (protein)
chain: ADREKLLTESGVYGTFATFQMDHDWWDLPGESRVISVAEVKGLVEQWSGKILVESYLLRGLSDHADLMFRVHARTLSDTQQFLSAFMGTRLGRHLTSGGLLHGVSKKPTYVAGFPESMKTELQVNGESGSRPYAIVIPIKKDAEWWALDQEARTALMQEHTQAALPYLKTVKRKLYHSTGLDDVDFITYFETERLEDFHNLVRALQQVKEFRHNRRFGHPTLLGTMSPLDEILEKFAQ
notes: codon-optimised; N-terminal FLAG kept; expressed in HeLa cells; 29 kDa; runs at 248 kDa (dimer of pentamers)
Km: 560 µM
